Ends that are not written are not given here.
T1: corticotropin releasing factor 2 receptor
T1 sequence (Q13324 whole entry, species assumed, looked up): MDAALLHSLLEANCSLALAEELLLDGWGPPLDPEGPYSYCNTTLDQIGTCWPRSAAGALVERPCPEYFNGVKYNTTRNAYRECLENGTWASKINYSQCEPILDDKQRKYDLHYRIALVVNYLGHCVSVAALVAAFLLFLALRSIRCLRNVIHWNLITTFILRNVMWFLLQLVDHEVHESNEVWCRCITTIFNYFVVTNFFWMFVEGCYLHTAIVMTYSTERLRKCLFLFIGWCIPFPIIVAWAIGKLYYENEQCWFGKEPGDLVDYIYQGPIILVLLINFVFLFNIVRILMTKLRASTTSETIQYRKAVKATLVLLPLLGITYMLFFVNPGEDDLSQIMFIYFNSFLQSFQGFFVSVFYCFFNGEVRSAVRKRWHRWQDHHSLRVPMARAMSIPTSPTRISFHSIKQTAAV

T2: corticotropin releasing factor 2 receptor
T2 sequence (Q13324 whole entry, species assumed, looked up): T1 sequence (Q13324 whole entry, species assumed, looked up)


Each binder was assayed against corticotropin releasing factor 1 receptor (assay: cell-based or functional assay).

Binder | CRF1R EC50 | CRF1R Emax %
ZGPPISIDVPIGLLRKMIEIEKQEKEKQQAANNRLLLDTI (C-terminal amide) [SEQ ID NO 254] | 708 nM | 6%
ZGPPISIDLPFQLLRILIEIEKQEKEKQQAANNRLLLDTI (C-terminal amide) [SEQ ID NO 255] | 33.3 nM | 84%

Each binder was assayed against T1, corticotropin releasing factor 2 … (assay: cell-based or functional assay).

Binder | CRF2R EC50 | CRF2R Emax %
ZGPPISIDVPIGLLRKMIEIEKQEKEKQQAANNRLLLDTI (C-terminal amide) [SEQ ID NO 254] | 100 nM | 36%
ZGPPISIDLPFQLLRILIEIEKQEKEKQQAANNRLLLDTI (C-terminal amide) [SEQ ID NO 255] | 7 nM | 100%

Each binder was assayed against T2, corticotropin releasing factor 2 … (assay: cell-based or functional assay).

Binder | CRF2R EC50 | CRF2R Emax %
SEEPPISLDLTFHLLREVLEMARAEQLAQQAHSNRKLMEII (ends and bridges not checked) [human corticotropin releasing factor fragment] | 49.2 nM | 100%
DNPSLSIDLTFHLLRTLLELARTQSQRERAEQNRIIFDSV (ends and bridges not checked) [human urocortin I fragment] | 3.52 nM | 100%
TKFTLSLDVPTNIMNLLFNIAKAKNLRAQAAANAHLMAQI (ends and bridges not checked) [human urocortin III fragment] | > 100 nM | 60%
SQEPPISLDLTFHLLREVLEMTKADQLAQQAHSNRKLLDIA (ends and bridges not checked) [ovine corticotropin releasing factor fragment] | > 100 nM | 33%
IVLSLDVPIGLLQILLEQARARAAREQATTNARILARV (ends and bridges not checked) [human urocortin II fragment] | 3.64 nM | 98%

Biological target: corticotropin releasing factor 1 receptor
Experiment: cell-based or functional assay
Remark: another data set of the same source

Binder | CRF1R EC50 | CRF1R Emax %
SEEPPISLDLTFHLLREVLEMARAEQLAQQAHSNRKLMEII (ends and bridges not checked) [human corticotropin releasing factor fragment] | 19.9 nM | 87%
DNPSLSIDLTFHLLRTLLELARTQSQRERAEQNRIIFDSV (ends and bridges not checked) [human urocortin I fragment] | 9 nM | 100%
TKFTLSLDVPTNIMNLLFNIAKAKNLRAQAAANAHLMAQI (ends and bridges not checked) [human urocortin III fragment] | > 1000 nM | 10.2%
SQEPPISLDLTFHLLREVLEMTKADQLAQQAHSNRKLLDIA (ends and bridges not checked) [ovine corticotropin releasing factor fragment] | 27.4 nM | 98%
IVLSLDVPIGLLQILLEQARARAAREQATTNARILARV (ends and bridges not checked) [human urocortin II fragment] | > 100 nM | 9%

— US20030148956A1 (PROCTER AND GAMBLE, published 2003)
